# Experimental data taken from patent publication US20050181450A1, “Novel inositol 1,4,5-trisphosphate (IP3) receptor-binding protein and an IP3 indicator” (priority 2002, published 2005).
# Assays:
# [1] = S-adenosylhomocysteine hydrolase activity in the hydrolytic direction; format: biochemical; conditions: recombinant protein expressed in Escherichia coli; hydrolysis direction
# Method: The S-adenosylhomocysteine hydrolase activity in the hydrolytic direction of recombinant IRBIT-His (open circle), GST-IRBIT (triangle), GST (square), and S-adenosylhomocysteine hydrolase (closed circle) were measured according to the known method (43). Results are shown as the mean±standard deviation from three independent experimental results.
# To assay S-adenosylhomocysteine hydrolase activity in the hydrolytic direction, the color developed by the reaction between the product (Homocysteine) and 5,5′-dithiobis (2-nitrobenzoic acid) (Sigma) was measured spectroscopically using the purified IRBIT-His (3.0 μg), GST-IRBIT (4.3 μg), GST (1.3 μg) and rabbit S-adenosylhomocysteine hydrolase (Sigma) (2.4 μg), according to the known method (43). Absorbance at 412 nm was measured 0, 5, 20 and 60 minutes later using a DU 640 spectrophotometer (Beckman). Results are shown as the mean±standard deviation from three independent experiments (FIG. 2).
# [2] = target: T1, K508A mutant of GST-IbIIa (Mus musculus, UniProt P11881, K508A); assay: GST pulldown with K508A; format: binding; conditions: IRBIT in high salt extract
# T1 construct: GST-IbIIa (amino acids 224-604 of mouse IP3R1) and its site-directed mutants K508A and R441Q; made in house
# T1 sequence (P11881 224-604 K508A): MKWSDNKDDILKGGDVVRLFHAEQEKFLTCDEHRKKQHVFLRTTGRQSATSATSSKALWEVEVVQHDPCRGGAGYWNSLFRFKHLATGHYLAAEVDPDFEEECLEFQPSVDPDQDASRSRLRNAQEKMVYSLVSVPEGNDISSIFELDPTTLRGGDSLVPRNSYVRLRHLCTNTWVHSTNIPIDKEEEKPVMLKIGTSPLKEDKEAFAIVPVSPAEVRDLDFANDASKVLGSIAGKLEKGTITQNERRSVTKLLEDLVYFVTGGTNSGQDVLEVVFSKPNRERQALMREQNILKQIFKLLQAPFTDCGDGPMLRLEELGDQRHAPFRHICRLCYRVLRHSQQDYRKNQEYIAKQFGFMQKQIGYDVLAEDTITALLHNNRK
# Text: The cDNAs encoding the full-length and N-terminal region (amino acids 1-104) of IRBIT were subcloned into the Escherichia coli hexahistidine (His) fusion vector pET-23a(+) (Novagen) to generate IRBIT-His and IRBIT(1-104)-His expression vectors, respectively. The same cDNAs were subcloned into the GST fusion vector pGEX-4T-1 (Amersham Pharmacia Biotech) to generate GST-IRBIT and GST-IRBIT(1-104) expression vectors, respectively. The cDNA fragments encoding the amino acids 1-225, 1-343, 341-923, 600-1248, 916-1581 and 1553-1943 of the amino acid sequence (SEQ ID NO: 7) of mouse IP3R1 were inserted into pGEX-KG to generate GST-Ia, GST-Iab, GST-IIab, GST-IIbIIIa, GST-IIIab and GST-IV expression vectors, respectively. The amino acids 1593-2217 of mouse IP3R1 were inserted into pGEX-4T-1 to obtain GST-IV-Va expression vector. These fusion proteins were expressed in Escherichia coli. GST-EL was expressed in Sf9 cells as described above. […]
# For the determination of the IRBIT binding region and the critical amino acid residue of IP3R1, the diluted high salt extract was subjected to pulldown assay as described above with 100 pmol of GST, GST-EL, GST-Ia, GST-Iab, GST-IbIIa, GST-IIab, GST-IIbIIIa, GST-IIIab, GST-IV, GST-IV-Va, K508A or R441Q, and analyzed by Western blotting with anti-IRBIT antibody.
# GST-EL (IP3R) = target: T2, GST-EL (IP3R) (Mus musculus, UniProt P11881, N1264K); assay: [3H]IP3 binding to GST-EL; conditions: IRBIT treated with alkaline phosphatase
# T2 construct: construct a GST-IP3R1 (1-2217) vector (termed GST-EL); made in house; host or cells: GST-EL: Sf9 cells; His-IRBIT: Sf9 cells or E. coli
# T2 sequence (P11881 1-2217 N1264K): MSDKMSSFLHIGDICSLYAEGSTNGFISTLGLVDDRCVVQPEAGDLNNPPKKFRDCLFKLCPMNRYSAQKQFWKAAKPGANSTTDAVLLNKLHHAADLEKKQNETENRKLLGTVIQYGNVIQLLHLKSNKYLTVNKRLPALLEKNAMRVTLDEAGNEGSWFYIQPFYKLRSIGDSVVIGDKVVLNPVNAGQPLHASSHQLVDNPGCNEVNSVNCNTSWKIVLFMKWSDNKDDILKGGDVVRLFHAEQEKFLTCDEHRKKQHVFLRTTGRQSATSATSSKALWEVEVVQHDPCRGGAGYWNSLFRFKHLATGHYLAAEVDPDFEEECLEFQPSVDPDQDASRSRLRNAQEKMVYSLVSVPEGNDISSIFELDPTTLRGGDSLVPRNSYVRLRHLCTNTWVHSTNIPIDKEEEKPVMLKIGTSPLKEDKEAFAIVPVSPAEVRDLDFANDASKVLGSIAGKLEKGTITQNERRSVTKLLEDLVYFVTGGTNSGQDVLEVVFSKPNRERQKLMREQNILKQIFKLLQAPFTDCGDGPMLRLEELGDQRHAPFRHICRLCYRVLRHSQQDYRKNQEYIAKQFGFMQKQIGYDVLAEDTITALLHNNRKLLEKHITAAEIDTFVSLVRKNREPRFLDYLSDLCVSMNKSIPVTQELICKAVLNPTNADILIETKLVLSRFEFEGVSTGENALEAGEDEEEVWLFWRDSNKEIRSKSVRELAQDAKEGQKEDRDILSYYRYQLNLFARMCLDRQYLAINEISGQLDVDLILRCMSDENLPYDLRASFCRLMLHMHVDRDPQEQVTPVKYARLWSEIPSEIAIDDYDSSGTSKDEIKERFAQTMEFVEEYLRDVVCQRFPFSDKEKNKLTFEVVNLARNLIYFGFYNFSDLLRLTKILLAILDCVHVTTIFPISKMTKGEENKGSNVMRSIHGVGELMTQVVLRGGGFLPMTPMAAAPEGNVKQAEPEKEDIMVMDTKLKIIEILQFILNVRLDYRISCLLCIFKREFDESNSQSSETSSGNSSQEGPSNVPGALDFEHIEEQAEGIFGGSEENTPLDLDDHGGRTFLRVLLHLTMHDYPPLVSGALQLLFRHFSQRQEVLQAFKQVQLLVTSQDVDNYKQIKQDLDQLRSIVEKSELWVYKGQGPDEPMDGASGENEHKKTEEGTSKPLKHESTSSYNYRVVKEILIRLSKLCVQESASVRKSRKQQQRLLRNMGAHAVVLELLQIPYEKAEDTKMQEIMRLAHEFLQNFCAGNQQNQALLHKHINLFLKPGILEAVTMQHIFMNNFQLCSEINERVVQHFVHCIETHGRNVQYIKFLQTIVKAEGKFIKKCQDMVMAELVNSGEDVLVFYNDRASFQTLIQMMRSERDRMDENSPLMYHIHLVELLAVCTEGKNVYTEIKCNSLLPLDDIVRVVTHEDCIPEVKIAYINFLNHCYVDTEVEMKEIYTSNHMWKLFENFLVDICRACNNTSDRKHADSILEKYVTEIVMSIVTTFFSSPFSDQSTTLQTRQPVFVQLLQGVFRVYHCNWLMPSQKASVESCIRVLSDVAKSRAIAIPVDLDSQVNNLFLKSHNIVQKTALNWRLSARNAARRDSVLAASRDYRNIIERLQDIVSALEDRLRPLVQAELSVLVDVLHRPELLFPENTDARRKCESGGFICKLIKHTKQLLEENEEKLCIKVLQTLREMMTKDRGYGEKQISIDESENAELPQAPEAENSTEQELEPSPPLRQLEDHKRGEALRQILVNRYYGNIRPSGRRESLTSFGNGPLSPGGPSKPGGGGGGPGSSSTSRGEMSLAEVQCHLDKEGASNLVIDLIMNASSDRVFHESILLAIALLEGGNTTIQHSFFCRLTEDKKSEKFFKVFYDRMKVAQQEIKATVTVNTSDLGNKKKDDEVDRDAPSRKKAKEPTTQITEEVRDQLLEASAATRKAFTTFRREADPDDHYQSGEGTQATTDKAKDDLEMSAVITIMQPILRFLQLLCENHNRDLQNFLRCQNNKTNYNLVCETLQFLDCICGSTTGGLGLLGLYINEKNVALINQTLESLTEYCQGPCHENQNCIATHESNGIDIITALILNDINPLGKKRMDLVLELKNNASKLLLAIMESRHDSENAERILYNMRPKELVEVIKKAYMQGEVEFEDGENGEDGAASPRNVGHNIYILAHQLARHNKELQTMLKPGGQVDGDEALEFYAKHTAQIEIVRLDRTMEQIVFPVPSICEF
# Method: (A) 0.2 μg of GST-EL was incubated with 0.1, 1, or 10 μg of purified His-tagged IRBIT expressed in Sf9 cells or E. coli in a solution containing 50 mM Tris-HCl (pH 8.0), 1 mM EDTA, and 1 mM 2-mercaptoethanol, for 30 min on ice. Then 8.7 nM [^3H]IP3 (PerkinElmer Life Sciences) was added to the samples and incubated for 10 min on ice (total volume was 50 μl). The samples were mixed with 2 μl of 50 mg/ml γ-globulin and 50 μl of 30% PEG6000, 50 mM Tris-HCl (pH 8.0), and incubated for 5 min on ice. Non-specific binding was measured in the presence of 10 μM cold IP3. After centrifugation at 20,000×g for 5 min, the precipitate was dissolved in SOLVABLE™ (Packard) and the radioactivity was measured with a liquid scintillation counter (Beckman Coulter). Results are shown as the mean±S.D. from three independent experiments. (B) Purified His-IRBIT expressed in Sf9 cells was incubated with alkaline phosphatase for 30 min at 37° C. prior to the IP3 binding assay described as in (A). (C and D) Scatchard analysis. 0.1 μg of GST-EL was incubated with or without 1 μg of purified His-tagged IRBIT expressed in Sf9 cells as described in (A). Then 2.17 nM [^3H]IP3 and 2-500 nM cold IP3 were added to the samples and incubated for 10 min on ice (total volume was 100 μl). Non-specific binding was measured in the presence of 10 μM cold IP3. [^3H]IP3 binding to GST-EL was measured as described in (A).
# The effect of IRBIT on binding of IP3 to IP3R was examined. GST-EL (0.2 μg) was incubated with 0.1, 1, or 10 μg of purified His-tagged IRBIT expressed in Sf9 cells or E. coli in a solution containing 50 mM Tris-HCl (pH 8.0), 1 mM EDTA, and 1 mM 2-mercaptoethanol, for 30 min on ice. Then 8.7 nM [^3H]IP3 (PerkinElmer Life Sciences) was added to the samples and incubated for 10 min on ice (total volume was 50 μl). The samples were mixed with 2 μl of 50 mg/ml γ-globulin and 50 μl of 30% PEG6000, 50 mM Tris-HCl (pH 8.0), and incubated for 5 min on ice. Non-specific binding was measured in the presence of 10 μM cold IP3. After centrifugation at 20,000×g for 5 min, the precipitate was dissolved in SOLVABLE™ (Packard) and the radioactivity was measured with a liquid scintillation counter (Beckman Coulter). […] 0.1 μg of GST-EL was incubated with or without 1 μg of purified His-tagged IRBIT expressed in Sf9 cells as described in (A). Then 2.17 nM [^3H]IP3 and 2-500 nM cold IP3 were added to the samples and incubated for 10 min on ice (total volume was 100 μl). Non-specific binding was measured in the presence of 10 μM cold IP3. [^3H]IP3 binding to GST-EL was measured as described in (A). […] Bmax was not changed.
molecule,measurement,setting,value
"IRBIT: novel IP3 receptor-binding protein of 530 amino acids, SEQ ID NO: 1 (protein, listed as Mus musculus) MSMPDAMPLPGVGEELKQAKEIEDAEKYSFMATVTKAPKKQIQFADDMQEFTKFPTKTGRRSLSRSISQSSTDSYSSAASYTDSSDDEVSPREKQQTNSKGSSNFCVKNIKQAEFGRREIEIAEQDMSALISLRKRAQGEKPLAGAKIVGCTHITAQTAVLIETLCALGAQCRWSACNIYSTQNEVAAALAEAGVAVFAWKGESEDDFWWCIDRCVNMDGWQANMILDDGGDLTHWVYKKYPNVFKKIRGIVEESVTGVHRLYQLSKAGKLCVPAMNVNDSVTKQKFDNLYCCRESILDGLKRTTDVMFGGKQVVVCGYGEVGKGCCAALKALGAIVYITEIDPICALQACMDGFRVVKLNEVIRQVDVVITCTGNKNVVTREHLDRMKNSCIVCNMGHSNTEIDVTSLRTPELTWERVRSQVDHVIWPDGKRVVLLAEGRLLNLSCSTVPTFVLSITATTQALALIELYNAPEGRYKQDVYLLPKKMDEYVASLHLPSFDAHLTELTDDQAKYLGLNKNGPFKPNYYRY",S-adenosylhomocysteine hydrolase activity,[1],no S-adenosylhomocysteine hydrolase activity
same,binding to K508A,[2],did not bind
same,effect on IP3 binding of GST-EL after dephosphorylation,GST-EL (IP3R),reduced effect
